From the RNAGym collection of RNA variant scans (doi:10.7554/elife.80360)

B1: Twister Ribozyme (parent)
chain: AACACUGCCAAUGCCGGUCCCAAGCCCGGAUAAAAGUGGAGGGGGCGG

Variants of: B1
Assay: self-cleavage, relative activity (ratio to wild type); higher = more cleavage; co-transcriptional

In order of falling self-cleavage:
1. A1G A2C  1.43
2. A1C A2C  1.36
3. A1C A2G  1.25
4. A1G G16U  0.726
5. A1G C14U  0.693
6. A1G U31G  0.533
7. A1G A10C  0.532
8. A1G U12G  0.527
9. A1G U12A  0.515
10. A1G A33U  0.512
11. A1G A32G  0.507
12. A1G G16A  0.5
13. A1G A33G  0.499
14. A1G A32C  0.497
15. A1G A11U  0.47
16. A1G C14A  0.467
17. A1G A32U  0.459
18. A1G U12C  0.45
19. A1G G29A  0.437
20. A1G G38A  0.432
21. A1G G28U  0.428
22. A1G G48A  0.414
23. A1G G48U  0.409
24. A1G U31C  0.409
25. A1G C46U  0.393
26. A1G G47C  0.385
27. A1G G13A  0.383
28. A1G A30G  0.376
29. A1G G17A  0.367
30. A1G A34G  0.361
31. A1G C27U  0.36
32. A1G A35C  0.359
33. A1G C3A  0.349
34. A1G U6A  0.346
35. A1C A2U  0.346
36. A1G C19U  0.345
37. A1G G47A  0.334
38. A1G C5U  0.328
39. A1G A22C  0.325
40. A1G G45A  0.32
41. A1G C9G  0.315
42. A1G A23U  0.296
43. A1G G29C  0.29
44. A1G G44U  0.287
45. A1G G47U  0.278
46. A1C C5U  0.277
47. A1G C15A  0.265
48. A1G C9U  0.259
49. A1G G45C  0.254
50. A1G G44C  0.251
51. A1G G43U  0.243
52. A1G A34U  0.24
53. A1G U31A  0.24
54. A1C G42C  0.239
55. A1G A4U  0.235
56. A1G G41U  0.228
57. A1G A40G  0.227
58. A1G G36C  0.227
59. A1G C5A  0.224
60. A1C C14A  0.222
61. A1C C9A  0.221
62. A1G C8A  0.22
63. A1C G38U  0.22
64. A1G A23G  0.213
65. A1C G48U  0.212
66. A1C C3U  0.208
67. A1C G13U  0.207
68. A1G C25G  0.205
69. A1C C19U  0.205
70. A1C G36A  0.203
71. A1G U6C  0.202
72. A1G C19G  0.202
73. A1C G47C  0.199
74. A1C G41U  0.199
75. A1C A30C  0.199
76. A1G G39U  0.198
77. A1G C25A  0.197
78. A1C C3A  0.193
79. A1G U37C  0.192
80. A1C G16C  0.192
81. A1C C14U  0.19
82. A1G A2U  0.19
83. A1C A34G  0.19
84. A1G C27A  0.189
85. A1C U6A  0.189
86. A1C G16U  0.189
87. A1C C15G  0.187
88. A1C C8G  0.187
89. A1C A40C  0.186
90. A1C A23U  0.184
91. A1G G24C  0.18
92. A1C G43U  0.179
93. A1G C27G  0.178
94. A1C A30U  0.177
95. A1C G44A  0.176
96. A1G G43A  0.176
97. A1C A11U  0.176
98. A1C A34U  0.176
99. A1C C9U  0.174
100. A1C G36U  0.173
101. A1C C26G  0.171
102. A1C C26A  0.171
103. A1C U18C  0.17
104. A1C A33C  0.169
105. A1C G42U  0.169
106. A1G C14G  0.168
107. A1C G44C  0.162
108. A1C G39A  0.162
109. A1C G24A  0.161
110. A1C C21A  0.154
111. A1C A10U  0.153
112. A1C G7U  0.149
113. A1C C25A  0.148
114. A1C C46A  0.148
115. A1C U37A  0.148
116. A1C U6C  0.147
117. A1G C21U  0.146
118. A1C G17C  0.145
119. A1C A23G  0.145
120. A1C G39C  0.145
121. A1C U12C  0.144
122. A1G G24A  0.144
123. A1C G41A  0.143
124. A1C U31C  0.141
125. A1C U18A  0.14
126. A1C G41C  0.14
127. A1C C27U  0.138
128. A1G C20G  0.134
129. A1C A22C  0.134
130. A1C G44U  0.133
131. A1C C26U  0.133
132. A1C A10G  0.133
133. A1C C21U  0.125
134. A1G C15G  0.125
135. A1C C19A  0.123
136. A1C C27G  0.121
137. A1C A23C  0.12
138. A1U A2C  0.118
139. A1C A40G  0.117
140. A1C G13C  0.116
141. A1C A33G  0.116
142. A1C A4U  0.116
143. A1C G24U  0.111
144. A1C C20A  0.104
145. A1U A35C  0.0998
146. A1C C21G  0.0972
147. A1G U6G  0.0944
148. A1U A34C  0.092
149. A1U A22C  0.0885
150. A1U A10U  0.0883
151. A1C U6G  0.0831
152. A1G G7C  0.0808
153. A1U A4G  0.0751
154. A1G A4C  0.0744
155. A1U A11C  0.0741
156. A1U A40G  0.074
157. A1U A11G  0.0739
158. A1U A40U  0.0682
159. A1U A2G  0.0622
160. A1U A33U  0.0603
161. A1U A23U  0.0522
162. A1U A33C  0.0396
163. A1U A30U  0.0367
164. A1U A10C  0.0358
165. A1G C21G  0.0325
166. A1U A4U  0.0259
167. A1U A35G  0.025
